Data on one protein can be found in US20120213761.

The target in the data set is T1, tumor necrosis factor receptor-associated factor 2 (TRAF2), endogenous, in human cardiac tissue, Q12933.
T1 chain: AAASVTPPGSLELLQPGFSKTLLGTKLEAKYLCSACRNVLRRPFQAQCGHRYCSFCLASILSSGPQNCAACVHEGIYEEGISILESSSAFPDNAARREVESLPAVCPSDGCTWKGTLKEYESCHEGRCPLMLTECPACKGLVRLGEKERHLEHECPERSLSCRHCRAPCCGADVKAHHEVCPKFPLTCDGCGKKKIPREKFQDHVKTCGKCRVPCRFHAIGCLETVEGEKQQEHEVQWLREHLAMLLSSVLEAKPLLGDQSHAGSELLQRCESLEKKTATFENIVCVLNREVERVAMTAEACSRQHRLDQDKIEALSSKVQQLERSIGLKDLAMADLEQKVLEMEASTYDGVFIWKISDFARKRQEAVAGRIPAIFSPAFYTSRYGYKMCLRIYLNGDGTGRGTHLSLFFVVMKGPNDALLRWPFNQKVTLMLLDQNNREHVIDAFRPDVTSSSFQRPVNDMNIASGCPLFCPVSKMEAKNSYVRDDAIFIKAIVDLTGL

B1: recombinant GSTP1 (Assay Design, Ann Arbor, Mich.) (protein)
chain: PPYTVVYFPVRGRCAALRMLLADQGQSWKEEVVTVETWQEGSLKASCLYGQLPKFQDGDLTLYQSNTILRHLGRTLGLYGKDQQEAALVDMVNDGVEDLRCKYISLIYTNYEAGKDDYVKALPGQLKPFETLLSQNQGGKTFIVGDQISFADYNLLDLLLIHEVLAPGCLDAFPLLSAYVGRLSARPKLKAFLASPEYVNLPINGNGKQ
B1: the “JNK1 and p38 activation (active JNK / active p38 protein, Western blot) in cardiac tissue cultures” value is “acts as a negative regulator of JNK1 and p38 activation”; the “TNF-α-induced JNK and p38 activation in DCM cardiac tissue cultures (Western blot)” value was “higher GSTP1 concentrations inhibit TNF-α-induced JNK and p38 activation in DCM”.
